Literature values in paper PMC7288020.

Target: Aβ1-40 Aβ 1-40 (Homo sapiens) (UniProt P05067)
Sequence of UniProt P05067 (P05067 1-40): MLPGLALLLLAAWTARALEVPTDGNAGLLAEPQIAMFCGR

Q: With ApoA1 (from UniProt P02647) as the substance, how does the Kd read?
A: Its Kd is 6 nM.
